# Data taken from patent US11780895B2, “Targeted DNA demethylation and methylation” (The Jackson Laboratory, priority 2016, dated 2023).
# Positions count from the first letter of the chain named.
# B1: TET1(CD)-PUFa: hTET1 catalytic domain fused to the N-terminus of PUFa (protein)
# chain: MGPAELPTCSCLDRVIQKDKGPYYTHLGAGPSVAAVREIMENRYGQKGNAIRIEIVVYTGKEGKSSHGCPIAKWVLRRSSDEEKVLCLVRQRTGHHCPTAVMVVLIMVWDGIPLPMADRLYTELTENLKSYNGHPTDRRCTLNENRTCTCQGIDPETCGASFSFGCSWSMYFNGCKFGRSPSPRRFRIDPSSPLHEKNLEDNLQSLATRLAPIYKQYAPVAYQNQVEYENVARECRLGSKEGRPFSGVTACLDFCAHPHRDIHNMNNGSTVVCTLTREDNRSLGVIPQDEQLHVLPLYKLSDTDEFGSKEGMEAKIKSGAIEVLAPRRKKRTCFTQPVPRSGKKRAAMMTEVLAHKIRAVEKKPIPRIKRKNNSTTTNNSKPSSLPTLGSNTETVQPEVKSETEPHFILKSSDNTKTYSLMPSAPHPVKEASPGFSWSPKTASATPAPLKNDATASCGFSERSSTPHCTMPSGRLSGANAAAADGPGISQLGEVAPLPTLSAPVMEPLINSEPSTGVTEPLTPHQPNHQPSFLTSPQDLASSPMEEDEQHSEADEPPSDEPLSDDPLSPAEEKLPHIDEYWSDSEHIFLDANIGGVAIAPAHGSVLIECARRELHATTPVEHPNRNHPTRLSLVFYQHKNLNKPQHGFELNKIKFEAKEAKNKKMKASEQKDQAANEGPEQSSEVNELNQIPSHKALTLTHDNVVTVSPYALTHVAGPYNHWVIDGGGGSDPKKKRKVDPKKKRKVDPKKKRKVGSTGSRNDGGGGSGGGGSGGGGSGRAGILPPKKKRKVSRGRSRLLEDFRNNRYPNLQLREIAGHIMEFSQDQHGSRFIQLKLERATPAERQLVFNEILQAAYQLMVDVFGNYVIQKFFEFGSLEQKLALAERIRGHVLSLALQMYGSRVIEKALEFIPSDQQNEMVRELDGHVLKCVKDQNGNHVVQKCIECVQPQSLQFIIDAFKGQVFALSTHPYGCRVIQRILEHCLPDQTLPILEELHQHTEQLVQDQYGNYVIQHVLEHGRPEDKSKIVAEIRGNVLVLSQHKFASNVVEKCVTHASRTERAVLIDEVCTMNDGPHSALYTMMKDQYANYVVQKMIDVAEPGQRKIVMHKIRPHIATLRKYTYGKHILAKLEKYYMKNGVDLGDPKKKRKVDPKKKRKVGGRGGGGSGGGGSGGGGSGPA
# B2: PUFa-VP64: PUF(3-2) domain with NLS fused to VP64 (protein)
# chain: MGILPPKKKRKVSRGRSRLLEDFRNNRYPNLQLREIAGHIMEFSQDQHGSRFIQLKLERATPAERQLVFNEILQAAYQLMVDVFGNYVIQKFFEFGSLEQKLALAERIRGHVLSLALQMYGSRVIEKALEFIPSDQQNEMVRELDGHVLKCVKDQNGNHVVQKCIECVQPQSLQFIIDAFKGQVFALSTHPYGCRVIQRILEHCLPDQTLPILEELHQHTEQLVQDQYGNYVIQHVLEHGRPEDKSKIVAEIRGNVLVLSQHKFASNVVEKCVTHASRTERAVLIDEVCTMNDGPHSALYTMMKDQYANYVVQKMIDVAEPGQRKIVMHKIRPHIATLRKYTYGKHILAKLEKYYMKNGVDLGGPAGSGRADALDDFDLDMLGSDALDDFDLDMLGSDALDDFDLDMLGSDALDDFDLDMLYID
# B3: PUFb-VP64: PUF(6-2/7-2) domain with NLS fused to VP64 (protein)
# chain: B2 chain with S122C, E126Q, N230S, Q234E, S266N, E270Q
# B4: PUFa-TET1(CD): hTET1 catalytic domain (residues 1418 to 2136) fused to the C-terminus of PUFa (protein)
# chain: MIDGGGGSDPKKKRKVDPKKKRKVDPKKKRKVGSTGSRNDGGGGSGGGGSGGGGSGRAGILPPKKKRKVSRGRSRLLEDFRNNRYPNLQLREIAGHIMEFSQDQHGSRFIQLKLERATPAERQLVFNEILQAAYQLMVDVFGNYVIQKFFEFGSLEQKLALAERIRGHVLSLALQMYGSRVIEKALEFIPSDQQNEMVRELDGHVLKCVKDQNGNHVVQKCIECVQPQSLQFIIDAFKGQVFALSTHPYGCRVIQRILEHCLPDQTLPILEELHQHTEQLVQDQYGNYVIQHVLEHGRPEDKSKIVAEIRGNVLVLSQHKFASNVVEKCVTHASRTERAVLIDEVCTMNDGPHSALYTMMKDQYANYVVQKMIDVAEPGQRKIVMHKIRPHIATLRKYTYGKHILAKLEKYYMKNGVDLGDPKKKRKVDPKKKRKVGGRGGGGSGGGGSGGGGSGPAELPTCSCLDRVIQKDKGPYYTHLGAGPSVAAVREIMENRYGQKGNAIRIEIVVYTGKEGKSSHGCPIAKWVLRRSSDEEKVLCLVRQRTGHHCPTAVMVVLIMVWDGIPLPMADRLYTELTENLKSYNGHPTDRRCTLNENRTCTCQGIDPETCGASFSFGCSWSMYFNGCKFGRSPSPRRFRIDPSSPLHEKNLEDNLQSLATRLAPIYKQYAPVAYQNQVEYENVARECRLGSKEGRPFSGVTACLDFCAHPHRDIHNMNNGSTVVCTLTREDNRSLGVIPQDEQLHVLPLYKLSDTDEFGSKEGMEAKIKSGAIEVLAPRRKKRTCFTQPVPRSGKKRAAMMTEVLAHKIRAVEKKPIPRIKRKNNSTTTNNSKPSSLPTLGSNTETVQPEVKSETEPHFILKSSDNTKTYSLMPSAPHPVKEASPGFSWSPKTASATPAPLKNDATASCGFSERSSTPHCTMPSGRLSGANAAAADGPGISQLGEVAPLPTLSAPVMEPLINSEPSTGVTEPLTPHQPNHQPSFLTSPQDLASSPMEEDEQHSEADEPPSDEPLSDDPLSPAEEKLPHIDEYWSDSEHIFLDANIGGVAIAPAHGSVLIECARRELHATTPVEHPNRNHPTRLSLVFYQHKNLNKPQHGFELNKIKFEAKEAKNKKMKASEQKDQAANEGPEQSSEVNELNQIPSHKALTLTHDNVVTVSPYALTHVAGPYNHWVID
# How the values were obtained:
# [1] = system: hMLH1; test: hMLH1 mRNA levels by TaqMan qRT-PCR in transfected HEK293T cells; type: cell-based, human; details: for activation of hMLH1 by dCas9 direct fusions (relative change in mRNA levels): same combination of sgRNAs as Casilio-ME; for hMLH1 expression, fold over background (change in mRNA levels): sgRNAs 3+7, 60 hours post-transfection, GAPDH normalised
# Method: To test the system, HEK293T cells were transfected with Casilio-ME components including Ct or Nt-fusion TET1-effector and a combination of 3 or 2 sgRNAs. Relative levels of hMLH1 mRNA were determined in TaqMan assays by using RNA extracted from cells 60 hours post-transfection and GAPDH as endogenous control for normalization of qRT-PCR measurements.
# Cell culture and transfection. HEK293T cells were cultivated in Dulbecco's modified Eagle's medium (DMEM)(Sigma) with 10% fetal bovine serum (FBS)(Lonza), 4% Glutamax (Gibco), 1% Sodium Pyruvate (Gibco) and penicillin-streptomycin (Gibco) in an incubator set to 37° C. and 5% CO2. When indicated cells were treated with 2.5 μM or 5 μM 5-Azacytidine (sigma) as indicated with a daily change of medium containing freshly diluted drug. Cells were seeded into 12-well plates at 150,000 cells per well the day before being transfected with 100 ng of dCas9 construct, 100 ng of modified sgRNA construct and 200 ng of PUF-fusion with Attractene transfection reagent according to manufacturer's instructions (Qiagen). In dCas9-direct fusion experiments, cells were transfected with 200 ng dCas9-fusion constructs and 200 ng of modified sgRNA constructs. Transfected cells were harvested 60 hours after transfection, or otherwise indicated, and cell pellets were used for extractions of RNA, genomic DNA and protein.
# Quantitative RT-PCR analysis. Cells were harvested, washed with Dulbecco's phosphate-buffered saline (dPBS), centrifuged at 125×g for 5 min and then the flash-frozen pellets were stored at −80° C. RNA was extracted using RNeasy Plus Mini Kit according to the manufacturer's instructions (Qiagen). cDNA libraries were made using Applied Biosystems High Capacity RNA-to-cDNA kit with 200 ng to 1 μg of RNA. TaqMan gene expression assays (Applied Biosystems) were designed using GAPDH (Hs03929097, VIC) as endogenous control and hMLH1 (Hs00179866, FAM) as target. TaqMan Universal Master Mix II, with UNG (Applied Biosystems) was used for Quantitative PCR (qPCR), with 2 μl of diluted cDNA used for each reaction. Activation was analyzed with the Applied Biosystems ViiA7 instrument. Gene expression levels were calculated by “delta delta Ct” algorithm and normalized to control samples.
# [2] = system: TetO::tdTomato transgene; test: TetO::tdTomato transgene activation measured by FACS; type: cell-based; details: for transgene activation with 15, 20, and 47 copies of PBS: with dCas9 and sgTetO-PBS, compared with 5-10 copies
# Text: In particular, to test whether appending PBS to the 3′ end of sgRNA affects sgRNA function, a series of modified Tet-targeting (sgTetO) or non-targeting control (sgControl) sgRNA were generated, with 0 copy, 5 copies, 15 copies, 25 copies, and 47 copies of the 8-mer Pumilio homologue domain-binding sequence (PBS) for PUF (3-2) (also simply referred to as PUFa) [PBS32 or PBSa: SEQ ID NO:8 (5′-UGUAUgUA-3′)], PUF(6-2/7-2) (also simply referred to as PUFb) [PBS6272 or PBSb: SEQ ID NO:9 (5′-UugAUAUA-3′)].
# Cells were transfected with dCas9-VP64 with the different sgRNA scaffolds, and were analyzed by fluorescent-activated cell sorting (FACS) two days after transfection (FIG. 1B).
# Fusions of PUF(3-2)::VP64 and PUF(6-2/7-2)::VP64, which interacts with sgRNA (sgRNA-PBS32) with 5′-UGUAUgUA-3′ binding sites and sgRNA-PBS6272 with 5′-UugAUAUA-3′ binding sites, respectively, were created, and their activity to turn on tdTomato expression in conjunction with dCas9 was tested. In addition, two additional pairs, PUFw-VP64 recognizing PBSw (5′-UGUAUAUA-3′) and PUFc-VP64 recognizing PBSc (5′-UugAUgUA-3′), were also constructed to test their ability to activate the same TetO::tdTomato expression in conjunction with dCas9 (FIG. 1D).
# Cell Culture for Experiments. HEK293T cells were cultivated in Dulbecco's modified Eagle's medium (DMEM)(Sigma) with 10% fetal bovine serum (FBS)(Lonza), 4% Glutamax (Gibco), 1% Sodium Pyruvate (Gibco) and penicillin-streptomycin (Gibco). Incubator conditions were 37° C. and 5% CO2. For activation experiments, cells were seeded into 12-well plates at 100,000 cells per well the day before being transfected with 200 ng of dCas9 construct, 100 ng of modified sgRNA and 100 ng of PUF-fusion with Attractene transfection reagent (Qiagen). After transfection, cells were grown for 48 hrs and harvested for either RNA extraction or fluorescent-activated cell sorting (FACS). […]
# Fluorescent-Activated Cell Sorting. […] Samples were analyzed on a FACScalibur flow cytometer using CellQuest Pro software (BD Bioscience). […] were collected in each run.
Molecule,activation of hMLH1 by dCas9 direct fusions (relative change in mRNA levels) ([1]; HEK293T),"hMLH1 expression, fold over background (change in mRNA levels) ([1]; HEK293T) [fold]","transgene activation with 15, 20, and 47 copies of PBS [2]",other results
dCas9-TET1(CD): direct fusion of TET1(CD) to the C-terminus of dCas9,relatively weak activation,19,,"hMLH1 activation relative to dCas9-p65HSF1 ([1]; HEK293T, same sgRNA combination): at best twice the activity obtained with transcription activator dCas9 fusion; hMLH1 activation as percentage of the activation obtained using Casilio-ME ([1]; same sgRNAs combination, parallel experiment): about 14%"
TET1(CD)-dCas9: direct fusion of TET1(CD) to the N-terminus of dCas9,much weaker activation than its respective C-terminal fusion,,,
B1,,≤ 20,,
B2,,,"slightly lower, albeit still substantial transgene activation",activation with only one PBSa ([2]; TetO-targeting sgRNA with 1 copy of PBSa): previously not observed
B3,,,"slightly lower, albeit still substantial transgene activation",
B4,,135,,"time course of activation of hMLH1 transcription ([1]; HEK293T, RNA guides 3 and 7, 3, 4, 5 and 6 days post transfection): maintained during the course of these transient transfections"
